Reference: PMC3154542 (Growth Factors (Chur, Switzerland), 2011)

B1: recombinant human bone morphogenetic protein 2 (rhBMP2) (ligand, UniProt P12643 283-396, looked up)
chain: QAKHKQRKRLKSSCKRHPLYVDFSDVGWNDWIVAPPGYHAFYCHGECPFPLADHLNSTNHAIVQTLVNSVNSKIPKACCVPTELSAISMLYLDENEKVVLKNYQDMVVEGCGCR
notes: bone morphogenetic protein 2, human, mature domain; homodimer by non-reducing SDS-PAGE; source: CHO cells, purified (as in Wang et al. 1990)
B2: ALK6-Fc (activin receptor-like kinase 6 extracellular domain linked to the human IgG Fc region) (Fc fusion, UniProt O00238 14-126, looked up)
chain: KKEDGESTAPTPRPKVLRCKCHHHCPEDSVNNICSTDGYCFTMIEEDDSGLPVVTSGCLGLEGSDFQCRDTPIPHQRRSIECCTERNECNKDLHPTLPPLKNRDFVDGPIHHR
notes: activin receptor-like kinase 6 (ALK6), type I BMP receptor, extracellular domain; source: synthesized in-house
B3: recombinant human bone morphogenetic protein 12 (rhBMP12) (ligand, UniProt Q7Z4P5 322-450, looked up)
chain: TALAGTRTAQGSGGGAGRGHGRRGRSRCSRKPLHVDFKELGWDDWIIAPLDYEAYHCEGLCDFPLRSHLEPTNHAIIQTLLNSMAPDAAPASCCVPARLSPISILYIDAANNVVYKQYEDMVVEACGCR
notes: bone morphogenetic protein 12 (BMP12, also known as GDF7), human, mature form; homodimer by non-reducing SDS-PAGE
B4: recombinant human bone morphogenetic protein 13 (rhBMP13) (ligand, UniProt Q6KF10 336-455, looked up)
chain: TAFASRHGKRHGKKSRLRCSKKPLHVNFKELGWDDWIIAPLEYEAYHCEGVCDFPLRSHLEPTNHAIIQTLMNSMDPGSTPPSCCVPTKLTPISILYIDAGNNVVYKQYEDMVVESCGCR
notes: bone morphogenetic protein 13 (BMP13, also known as GDF6), human, mature form; homodimer by non-reducing SDS-PAGE
B5: ACVR2B-Fc (activin receptor type-2B extracellular domain linked to the human IgG Fc region) (Fc fusion, UniProt Q13705 19-137, looked up)
chain: SGRGEAETRECIYYNANWELERTNQSGLERCEGEQDKRLHCYASWRNSSGTIELVKKGCWLDDFNCYDRQECVATEENPQVYFCCCEGNFCNERFTHLPEAGGPEVTYEPPPTAPTLLT
notes: activin receptor type-2B (ACVR2B), type II receptor, extracellular domain; source: synthesized in-house
B6: BMPRII (BMP receptor 2 extracellular domain linked to the human IgG Fc region) (Fc fusion, UniProt Q13873 27-150, looked up)
chain: SQNQERLCAFKDPYQQDLGIGESRISHENGTILCSKGSTCYGLWEKSKGDINLVKQGCWSHIGDPQECHYEECVVTTTPPSIQNGTYRFCCCSTDLCNVNFTENFPPPDTTPLSPPHSFNRDET
notes: BMP receptor type 2 (BMPR2, BMPRII), type II receptor, extracellular domain; printed as 'BMPRII' without '-Fc' in the list of Fc fusion proteins; also called BMPR2; BMPR-2; source: synthesized in-house

Key:
[1] = target: the molecule itself; assay: non-reducing SDS-PAGE; purified proteins on 12% polyacrylamide gels under non-reducing against reducing (β-mercaptoethanol) conditions, Coomassie blue staining
[2] = target: B1; assay: BLI; receptor extracellular domain-Fc chimeras immobilised on anti-human IgG Fc biosensor tips (ForteBio Octet RED); sixfold serial dilutions of human BMPs in solution; association 10 min, dissociation 30 min; global fit to a 1:1 Langmuir model; details: both partners purified
[3] = target: B3; assay: as above; details: both partners purified
[4] = target: B4; assay: as above; details: both partners purified
[5] = target: T1, ALK3-Fc (activin receptor-like kinase 3 extracellular domain linked to the human IgG Fc region) (UniProt P36894 24-152); assay: as above; details: both partners purified
T1 construct: activin receptor-like kinase 3 (ALK3), type I BMP receptor, extracellular domain; source: bought: R&D Systems
T1 sequence (P36894 24-152): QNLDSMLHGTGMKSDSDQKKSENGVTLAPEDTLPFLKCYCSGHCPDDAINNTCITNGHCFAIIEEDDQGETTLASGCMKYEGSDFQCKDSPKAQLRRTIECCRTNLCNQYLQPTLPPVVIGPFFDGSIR

[6] = target: B6; assay: as above; details: both partners purified

B1
stoichiometry N [1]: 2

B2
Kd [2]: 1.6 nM
koff [2]: 0.0064 s⁻¹
kon [2]: 4.28e+06 M⁻¹ s⁻¹
Kd [3]: 0.6 nM
koff [3]: 0.004 s⁻¹
kon [3]: 6.48e+06 M⁻¹ s⁻¹
Kd [4]: 0.5 nM
koff [4]: 0.0038 s⁻¹
kon [4]: 7.69e+06 M⁻¹ s⁻¹

B3
stoichiometry N [1]: 2
Kd [5]: 3.4 nM
koff [5]: 0.0164 s⁻¹
kon [5]: 5.07e+06 M⁻¹ s⁻¹

B4
stoichiometry N [1]: 2
Kd [6]: 28.1 nM
koff [6]: 0.16 s⁻¹
kon [6]: 5.7e+06 M⁻¹ s⁻¹
Kd [5]: 1.7 nM
koff [5]: 0.0084 s⁻¹
kon [5]: 4.97e+06 M⁻¹ s⁻¹

B5
Kd [3]: 1 nM
koff [3]: 0.0138 s⁻¹
kon [3]: 1.29e+07 M⁻¹ s⁻¹
Kd [4]: 1.6 nM
koff [4]: 0.0041 s⁻¹
kon [4]: 2.59e+06 M⁻¹ s⁻¹

B6
Kd [3]: 52.1 nM
koff [3]: 0.322 s⁻¹
kon [3]: 9.26e+06 M⁻¹ s⁻¹
